# According to PMC7578760 (iScience, 2020):
# Target: the molecule itself
# Assay: crystal structure
protein,measurement,value
14-3-3θ protein (natural protein) EKTELIQKAKLAEQAERYDDMATCMKAVTEQGAELSNEERNLLSVAYKNVVGGRRSAWRVISSIEQKTDTSDKKLQLIKDYREKVESELRSICTTVLELLDKYLIANATNPESKVFYLKMKGDYFRYLAEVACGDDRKQTIDNSQGAYQEAFDISKKEMQPTHPIRLGLALNFSVFYYEILNNPELACTLAKTAFDEAIAELDTLNEDSYKDSTLIMQLLRDNLTLWTSDSAG,stoichiometry N,2
